Experimental data as given in patent publication US20250051473A1 (IGM BIOSCIENCES, published 2025).

Key:
[1] = molecular target: T1, human CD157 protein (SinoBiological, 10060-H08H) (human, UniProt Q10588 33-292); assay: ELISA, antigen coated at 1 µg/mL, serial dilutions of IgM
T1 construct: Bought recombinant protein, coated on the ELISA plate
T1 sequence (looked up): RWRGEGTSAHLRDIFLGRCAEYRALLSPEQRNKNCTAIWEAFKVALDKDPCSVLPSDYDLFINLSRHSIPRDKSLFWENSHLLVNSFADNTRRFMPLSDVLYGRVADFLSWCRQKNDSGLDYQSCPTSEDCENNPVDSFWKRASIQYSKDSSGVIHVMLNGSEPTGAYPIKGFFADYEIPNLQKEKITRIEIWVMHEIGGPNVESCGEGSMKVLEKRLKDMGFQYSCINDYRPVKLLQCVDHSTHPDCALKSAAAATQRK

[2] = molecular target: T2, mouse CD38 (ACROBiosystems, CD8-M5223) (mouse, UniProt P56528 45-304); assay: as above
T2 construct: Bought recombinant protein, coated on the ELISA plate
T2 sequence (looked up): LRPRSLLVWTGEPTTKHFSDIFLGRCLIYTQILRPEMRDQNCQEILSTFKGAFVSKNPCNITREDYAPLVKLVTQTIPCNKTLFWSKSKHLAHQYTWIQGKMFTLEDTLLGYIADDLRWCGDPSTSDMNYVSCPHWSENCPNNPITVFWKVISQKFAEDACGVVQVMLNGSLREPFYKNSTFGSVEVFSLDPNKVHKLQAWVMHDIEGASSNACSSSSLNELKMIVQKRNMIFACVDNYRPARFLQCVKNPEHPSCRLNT

[3] = molecular target: T3, recombinant human CD38 extracellular domain protein (ACROBiosystems, Cat #CD8-H5224) (human, UniProt P28907 43-300); assay: ELISA, plate coated with 1 ug/mL recombinant human CD38, HRP anti-human kappa detection, chemiluminescence (RLU)
T3 construct: Bought protein; also called recombinant human CD38 protein

[4] = molecular target: cell surface human CD38 on NCI-H929 myeloma cells (human, UniProt P28907 1-300); assay: flow cytometry on NCI-H929 cells, AF488 anti-human kappa secondary antibody, median FL-1
[5] = molecular target: T4, recombinant cynomolgus monkey CD38 extracellular domain protein (ACROBiosystems) (cynomolgus monkey, UniProt Q5VAN0 44-301); assay: ELISA, plate coated with recombinant cynomolgus CD38 extracellular domain, HRP anti-human kappa detection, chemiluminescence (RLU)
T4 construct: Bought extracellular domain protein; also called cyno CD38; recombinant cyno CD38

[6] = molecular target: T3, recombinant human CD38 extracellular …; assay: ELISA, plate coated with recombinant human CD38 extracellular domain, HRP anti-human kappa detection, chemiluminescence (RLU)

| Binder | binding result [1] | binding result [2] | binding result [3] | binding result [4] | binding result [5] | binding result [6] | also measured |
| --- | --- | --- | --- | --- | --- | --- | --- |
| IgM B-2 (bispecific antibody, IgM and light chain constant regions not specified; also called humanized CD38 × CD3 IgM antibody) VH: QVQLVQSGAEVKKPGSSVKVSCKASGYTFTSYNMHWVRQAPGQGLEWMGYIYPGNGGTNYNQKFKGRVTITADESTSTAYMELSSLRSEDTAVYYCARGASMITTGAWFAYWGQGTLVTVSS VL: DIQMTQSPSSVSASVGDRVTITCRASESLDTYGNSFMYWYQQKPGKAPKLLIYLASSLESGVPSRFSGSGSGTDFTLTISSLQPEDFATYYCHQNHEDPWTFGQGTKVEIK not shown | no binding | no binding | binds | – | – | – | – |
| IgM B-4 (bispecific antibody, Constant regions not specified; also called humanized CD38 × CD3 IgM antibody) VH: QVQLVQSGAEVKKPGSSVKVSCKASGYTFTSYNMHWVRQAPGQGLEWMGYIYPGNGGTNYNQKFKGRVTITADESTSTAYMELSSLRSEDTAVYYCARGASMITTGAWFAYWGQGTLVTVSS VL: DIQMTQSPSSVSASVGDRVTITCRASESLDTYGNSFMYWYQQKPGKAPKLLIYLASSLESGVPSRFSGSGSGTDFTLTISSLQPEDFATYYCHQNHEDPWTFGQGTKVEIK not shown | no binding | no binding | binds | – | – | – | – |
| IgM E-1 (bispecific antibody, Constant regions not specified; also called chimeric CD38 × CD3 IgM antibody of Clone E) VH: QVQLQQSGAELVRPGTSVKMSCKAAGYTFTNHWIEWVKQRPGHGLEWIGDIFPGGGYTDYNEKFKGKATLTADTSSSTAYMQLSSLTSEDSAIYYCARGRDLAMDYWGQGTSVTVSS VL: DIQMNQSPSSLSASLGDTITITCHASQNINVWLGWYQQKPGNIPKLLIYKASNLHTGVPSRFSGSGSGTGFTLTISSLQPEDIATYYCQQGQSYPYTFGGGTKLEIK not shown | – | – | – | binds | binds | binds | – |
| IgM A-1 (bispecific antibody, The IgM heavy chain constant region and the light chain constant region used are not specified; also called chimeric CD38 × CD3 IgM antibody of Clone A) VH: QVQLQQSGAELVKPGASVKISCKASGYTFSNYWIEWVKQRPGLGLEWIGDILPGSGTTNYNEKFKGKATFTADTSSNTAYMQLSSLTSEDSAVYYCAGYGNYLWFTYWGQGTLVTVSA VL: DIQMNQSPSSLSASLGDTITITCHASQNINVWLSWYQQKPGNIPKLLIYKASNLHTGVPSRFSGSGSGTGFTLTISSLQPEDIATYYCQQGQSYPYTFGGGTKLEIK not shown | – | – | – | – | – | – | EC50 (read off the curve) [4]: ~2 nM; EC50 (read off the curve) [5]: ~0.2 µg/mL; EC50 (read off the curve) [6]: ~0.2 µg/mL |
| IgM E-2 (bispecific antibody, Constant regions not specified; also called humanized CD38 × CD3 IgM antibody) VH: QVQLVQSGAEVKKPGSSVKVSCKASGYTFTNHWIEWVRQAPGQGLEWMGDIFPGGGYTDYNEKFKGRVTITADESTSTAYMELSSLRSEDTAVYYCARGRDLAMDYWGQGTLVTVSS VL: DIQMTQSPSSLSASVGDRVTITCHASQNINVWLGWYQQKPGKAPKLLIYKASNLHTGVPSRFSGSGSGTDFTLTISSLQPEDFATYYCQQGQSYPYTFGQGTKVEIK not shown | no binding | no binding | binds | – | – | – | – |
| IgM E-4 (bispecific antibody, Constant regions not specified; also called humanized CD38 × CD3 IgM antibody) VH: QVQLVQSGAEVKKPGSSVKVSCKASGYTFTNHWIEWVRQAPGQGLEWMGDIFPGGGYTDYNEKFKGRVTITADESTSTAYMELSSLRSEDTAVYYCARGRDLAMDYWGQGTLVTVSS VL: DIQMTQSPSSLSASVGDRVTITCHASQNINVWLGWYQQKPGKAPKLLIYKASNLHTGVPSRFSGSGSGTDFTLTISSLQPEDFATYYCQQGQSYPYTFGQGTKVEIK not shown | no binding | no binding | binds | – | – | – | – |
| IgM C-1 (bispecific antibody, Constant regions not specified; also called chimeric CD38 × CD3 IgM antibody of Clone C) VH: EVQLQQSGTVLARPGASVKMSCKASGYTFTRYWMHWVKQRPGQDLEWIGGFYPGNSDTRYNQKFKDKAKLTAVTSTSTAYMELSSLTNEDSAVYYCTRGDRHDEGFAYWGQGTLVTVSA VL: DIQMTQSPASLSASVGETVTITCRASGNIHNYLAWYQQKQGKSPQLLVYNAKTLPDGVPSRFSGSGSGTQYSLKINSLQPEDFGTYYCQNIWTNYTFGGGTKLEIK not shown | – | – | – | binds | binds | binds | – |
| IgM F-1 (bispecific antibody, Constant regions not specified; also called chimeric CD38 × CD3 IgM antibody of Clone F) VH: EVQLQQSGAEFVRPGASVKLSCTASGFNIKDSLMHWVKQRPEQGLEWIGWIDPEDDKTKYAPKFQDEATLTADTSSNTAYLHLSSLTSEDTAIYYCARRFLRGFAYWGQGTLVTVSA VL: DIVMTQSPSSLSVSAGEKVTMSCKSSQSLLNSGNQKNYLAWYQQKPGQPPKLLIYGASTRESGVPDRFTGSGSGTDFTLTISSVQAEDLAVYYCQNDHSYPYTFGGGTKLEIK not shown | – | – | – | binds | binds | binds | – |
| IgM OKT10-2 (bispecific antibody, Constant regions not specified; also called humanized CD38 × CD3 IgM antibody) VH: EVQLLESGGGLVQPGGSLRLSCAASGFDFSRSWMNWVRQAPGKGLEWVSEINPDSSTINYATSLKDRFTISRDNSKNTLYLQMNSLRAEDTAVYYCARYGNWFPYWGQGTLVTVSS VL: DIQMTQSPSSLSASVGDRVTITCKASQNVDTNVAWYQQKPGKAPKALIYSASYRYSGVPSRFSGSGSGTDFTLTISSLQPEDFATYYCQQYDSYPLTFGQGTKVEIK not shown | no binding | no binding | – | – | – | – | EC50 (read off the curve) [3]: ~0.3 µg/mL |
| IgM OKT10-4 (bispecific antibody, Constant regions not specified; also called humanized CD38 × CD3 IgM antibody) VH: EVQLLESGGGLVQPGGSLRLSCAASGFDFSRSWMNWVRQAPGKGLEWVSEINPDSSTINYATSLKDRFTISRDNSKNTLYLQMNSLRAEDTAVYYCARYGNWFPYWGQGTLVTVSS VL: DIQMTQSPSSLSASVGDRVTITCKASQNVDTNVAWYQQKPGKAPKALIYSASYRYSGVPSRFSGSGSGTDFTLTISSLQPEDFATYYCQQYDSYPLTFGQGTKVEIK not shown | no binding | no binding | binds | – | – | – | – |
| IgM H-1 (bispecific antibody, Constant regions not specified; also called chimeric CD38 × CD3 IgM antibody of Clone H) VH: QVPLHQSGPELIKPGASLKISCKASDSAFNNSWMNWVRQRPGKGLEWIGWIYPGDDDTKYNGKFMGKATLTADKSSGTAYMQLSSLTSEDSAVYFCARGRWGMDYWGQGTSVTVSS VL: DIVMTQFHNFMSTSVGDRVNINCKASQNVVTAVAWYQQKPGQSPKLLIYWASTRHTGVPDRFTGSGSGTDFTLTISNVQSEDLADYFCQQYSNYPFTFGSGTKLEIK not shown | – | – | – | binds | binds | binds | – |
| IgM B-1 (bispecific antibody, Constant regions not specified; also called chimeric CD38 × CD3 IgM antibody of Clone B) VH: QAYLQQSGAEVVRSGASVKMSCKAAGYTFTSYNMHWVKQTPGQGLEWIGYIYPGNGGTNYNQKFKGKATLTADTSSTTAYMQISSLTSEDSAVYFCARGASMITTGAWFAYWGQGTLVTVSA VL: NIVLTQSPASLAVSLGQRATISCRASESLDTYGNSFMYWYQQKPGQPPKLLIYLASSLESGVPARFSGSGSRTDFTLTIDPVEADDAATYYCHQNHEDPWTFGGGTKLEIK not shown | – | – | – | binds | binds | binds | – |
